The values below come from article PMC11702068, “NEK8 promotes the progression of gastric cancer by reprogramming asparagine metabolism” (Molecular Medicine, 2025).

In this assay the target is T1, His-NEK8 (UniProt Q86SG6 1-692).
T1 construct: NEK8 (NIMA-related kinase 8); also called His-tagged NEK8; source: E. coli BL21, purified (Ni-NTA agarose)
T1 sequence (looked up): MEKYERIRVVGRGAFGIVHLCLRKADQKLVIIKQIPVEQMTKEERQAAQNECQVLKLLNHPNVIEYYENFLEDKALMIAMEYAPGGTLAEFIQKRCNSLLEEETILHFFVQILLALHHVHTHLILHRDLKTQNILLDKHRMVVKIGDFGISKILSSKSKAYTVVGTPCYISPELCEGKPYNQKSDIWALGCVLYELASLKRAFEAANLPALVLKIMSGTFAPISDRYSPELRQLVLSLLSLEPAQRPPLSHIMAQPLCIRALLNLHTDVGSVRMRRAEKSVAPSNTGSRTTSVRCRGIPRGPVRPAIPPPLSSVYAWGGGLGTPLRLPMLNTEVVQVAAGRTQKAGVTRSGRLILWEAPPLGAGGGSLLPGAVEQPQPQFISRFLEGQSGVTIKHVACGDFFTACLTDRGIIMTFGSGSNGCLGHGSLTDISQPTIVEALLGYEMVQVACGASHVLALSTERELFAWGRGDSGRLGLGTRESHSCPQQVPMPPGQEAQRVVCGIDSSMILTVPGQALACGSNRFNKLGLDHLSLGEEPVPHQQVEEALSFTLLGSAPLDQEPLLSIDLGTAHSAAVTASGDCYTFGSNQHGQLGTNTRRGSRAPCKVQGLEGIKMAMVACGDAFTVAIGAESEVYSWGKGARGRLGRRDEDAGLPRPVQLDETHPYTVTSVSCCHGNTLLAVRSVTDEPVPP
As to the kind of experiment: pull-down; GST affinity isolation: GST-tagged NEK8 or ASNS proteins on glutathione-Sepharose 4B beads incubated with His-tagged ASNS or NEK8 at 4 °C for five hours; wash with GST binding buffer (2 mM EDTA, 50 mM NaF, 100 mM NaCl, 1% NP-40); immunoblotting. The following applies: both partners purified.

B1: GST-ASNS full-length (enzyme, UniProt P08243 1-561, looked up)
chain: MCGIWALFGSDDCLSVQCLSAMKIAHRGPDAFRFENVNGYTNCCFGFHRLAVVDPLFGMQPIRVKKYPYLWLCYNGEIYNHKKMQQHFEFEYQTKVDGEIILHLYDKGGIEQTICMLDGVFAFVLLDTANKKVFLGRDTYGVRPLFKAMTEDGFLAVCSEAKGLVTLKHSATPFLKVEPFLPGHYEVLDLKPNGKVASVEMVKYHHCRDVPLHALYDNVEKLFPGFEIETVKNNLRILFNNAVKKRLMTDRRIGCLLSGGLDSSLVAATLLKQLKEAQVQYPLQTFAIGMEDSPDLLAARKVADHIGSEHYEVLFNSEEGIQALDEVIFSLETYDITTVRASVGMYLISKYIRKNTDSVVIFSGEGSDELTQGYIYFHKAPSPEKAEEESERLLRELYLFDVLRADRTTAAHGLELRVPFLDHRFSSYYLSLPPEMRIPKNGIEKHLLRETFEDSNLIPKEILWRPKEAFSDGITSVKNSWFKILQEYVEHQVDDAMMANAAQKFPFNTPKTKEGYYYRQVFERHYPGRADWLSHYWMPKWINATDPSARTLTHYKSAVKA
notes: asparagine synthetase (ASNS), full-length (FL); also called FL
Consider B1, for which the binding result is listed as “binds”.
